This note sets out measurements from paper PMC11233918.

Where two headings read alike, the source gives them in different places.

Holding throughout (assay): EMSA
In general terms: In EMSA bound probe runs differently from free probe, usually more slowly.

For series [1], the target named is T1, SUMO-TDP-43 RRM1,2 (human, UniProt Q13148 102-269).
The target of series [2] is T1, SUMO-TDP-43 RRM1,2. The source holds these as a separate data set.
The target in series [3] is T1, SUMO-TDP-43 RRM1,2. The source holds these as a separate data set.
Series [4] concerns the target T1, SUMO-TDP-43 RRM1,2. This is another data set of the same source.

T1 sequence (Q13148 102-269): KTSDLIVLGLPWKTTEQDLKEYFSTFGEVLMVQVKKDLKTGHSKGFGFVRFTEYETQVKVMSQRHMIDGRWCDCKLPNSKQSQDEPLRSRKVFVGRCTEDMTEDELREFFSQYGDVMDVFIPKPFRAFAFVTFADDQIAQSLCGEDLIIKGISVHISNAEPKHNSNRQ

On to GUGUGUGUGUGUGUGUGUGUGUGUGUGUGUGU (ssRNA, 2'-O-methyl and phosphorothioate; positions in Table S1 (not in material)) [(GU)16], for which the binding result with SUMO-TDP-43 RRM1,2 [1] is “binds”.

Consider AAAAAAAAAAAAAAAAAAAAAAAAAAAAAAAA (ssRNA, see Table S1 (not in material)) [A32], for which the binding result with SUMO-TDP-43 RRM1,2 [2] is on record as “no binding”.

Take GUGUGUGUGUGU (ssRNA, see Table S1 (not in material)) [(GU)6]: the binding result with SUMO-TDP-43 RRM1,2 [3] was “binds”.

Regarding GUGUGAAUGAAUGUGUGAAUGAAU (ssRNA, 2'-O-methyl and phosphorothioate; positions in Table S1 (not in material)) [('AUG12')2], the binding result with SUMO-TDP-43 RRM1,2 [4] is recorded as “binds”.

On to CACACACACACACACACACACACACACACACA (ssRNA, see Table S1 (not in material)) [(CA)16], for which, in the series with SUMO-TDP-43 RRM1,2 [2], the binding result is on record as “no binding”.
